Test results taken from patent US20260183363A1, “INHIBITION OF LUTEINIZING HORMONE (LH) ACTION AS TREATMENT OF PERIMENOPAUSAL AND POSTMENOPAUSAL SYMPTOMS AND COMPLICATIONS” (RIGSHOSPITALET, priority 2022, published 2026).
Non-standard residues stand in square brackets, D forms with d. Residues, ends and D or L forms follow the SMILES beside them. dPhe(4-Cl) = N[C@H](Cc1ccc(Cl)cc1)C(=O)O; d2Nal = N[C@H](Cc1ccc2ccccc2c1)C(=O)O; dCit = NC(=O)NCCC[C@@H](N)C(=O)O; d3Pal = N[C@H](Cc1cccnc1)C(=O)O

What was measured:
[1] = tested on: bilateral ovariectomized female C57BL/6JRj mice; assay: Calcium excretion and kidney weight in menopause mouse model; type: in vivo; details: for kidney weight compared with vehicle (IgG2b): female mice without ovaries; for kidney weight compared with vehicle (IgG2b) / calcium excretion: day 10; for calcium excretion: female mouse model
Procedure: (§1) Bilateral ovariectomized female C57BL/6JRj mice, 8 weeks of age, were included in the study and administered with IgG2b (control) or 1 of 3 test articles (LH-β ab, LHCGR ab or GnRH antagonist) either at study day 1, study day 1 and 5 or once a day for 9 days. The route of administration was through intraperitoneal (i.p.) injection. The study included be 6 groups in total (Table 6); group 1 (female, n=6) was treated i.p. with IgG2b (control) on study day 1 and day 5, group 2 (female, n=3) was treated i.p. with LH-β ab at study day 1, group 3 (female, n=1) was treated i.p. with LH-β AB on study day 1 and day 5, Group 4 (female, n=3) was treated i.p. with LHCGR ab at study day 1, group 5 (female, n=1) was treated i.p. with LHCGR ab on study day 1 and day 5, group 6 (female, n=3) was treated i.p. with GnRH antagonist once a day (q.d.) for 9 days. Blood for preparation of serum was collected prior to dosing on study day 1 and at termination on study day 10. Urine and kidneys were collected on day 10.
Seventeen (17) bilateral ovariectomized C57BL/6JRj female mice 8 weeks of age, were supplied by Janvier Labs France. The ovaries from the female mice were surgically removed by the supplier (see also Table 6). Fourteen (14) C57BL/6JRj male mice were also stratified into the different groups except that no male mice were treated with GnRH antagonist, and the male mice were therefore only stratified into groups 1-5 (see also Table 7).

[2] = tested on: bilateral ovariectomized female C57BL/6JRj mice; assay: Menopausal mouse model: temperature and tissue weights; type: in vivo; details: for Body weight compared with vehicle: after 10 days treatment
Procedure: Bilateral ovariectomized female C57BL/6JRj mice, 8 weeks of age, were included in the study and administered with IgG2b (control) or 1 of 3 test articles (LH-β ab, LHCGR ab or GnRH antagonist) either at study day 1, or once a day for 9 days. The control/vehicle treatment was a non-specific antibody (IgG2b). The route of administration was through intraperitoneal (i.p.) injection. The study had four groups in total (Table 3); group 1 (female, n=6) was treated i.p. with IgG2b (control) on study day 1 and day 5, group 2 (female, n=3) was treated i.p. with LH-β ab at study day 1, group 3 (female, n=3) was treated i.p. with LHCGR ab at study day 1, group 4 (female, n=3) was treated i.p. with GnRH antagonist once a day (q.d.) for 9 days. Blood for preparation of serum was collected prior to dosing on study day 1 and at termination on study day 10. Core temperature and skin temperature were determined in female mice pre-dose on study day 1, at study day 5 and at termination on study day 10.
Seventeen (17) ovariectomized C57BL/6JRj female mice 8 weeks of age were supplied by Janvier Labs France. The ovaries from the female mice were surgically removed by the supplier. The mice were caged in European IVC cages type IIL. Temperature was 20° C. to 24° C. and the light cycle 12-hour dark and 12-hour light (lights on 06.00). The diet was Altromin 1324, produced by Altromin, Im Seelenkamp 20, 32791 Lage, Germany.
Temperature measurements were done using rectal thermometer (thermometer BIO-TK8851 combined with rectal probe BIO-BRET-3, both from BIOSEB Lab instruments) for core temperature and infrared (153-IRB Infrared Thermometer, BIOSEB Lab instruments) for skin temperature. The core temperature was recorded rectally, and skin temperature was recorded at the tail and the head between the ears at the same time of the day (morning). Immediately after termination, tissues (fat and thyroid mass) were dissected, weighed, placed in Eppendorf tubes and snap frozen by emerging the tube in liquid nitrogen or placed in histology jar and fixed in 4% neutral buffered formalin.

human kidney tissue = assay: Ex vivo culture of human kidney tissue, qRT-PCR gene expression; type: cell-based
Procedure: Human kidney tissues from 5 adults (4 men, 1 […]) were cultured. All donors underwent partial nephrectomy due to suspected malignant kidney tumors and a pathologist removed tissues outside the malignant area. Kidney specimens were dissected in small pieces 1 mm^3 and cultured for either 3 or 24 hours in a hanging drop ex vivo model.
Gene expression profiling was done by qRT-PCR analyzing levels of calcium transporters SLC12A-1, SLC12A-2, TRPV5 as well as calcium-sensing receptor (CASR). The inventors also measured kidney expression of exon 2-4 and 11 of LHCGR using a primer-sequence previously validated by sequencing of the product from both serum and testis tissue. As calcium transporters are differentially expressed in the different parts of the nephron, all samples were standardized according to the expression of Uromodulin (UMOD), a protein located in the thick ascending limb of the loop of Henle and subsequently to MAP3K7 expressed in the distal convoluted tubules and in addition to being standardized to the housekeeping gene, RPS20. Ethical committee approval: H-17004362. All samples were analyzed with ANOVA with control/baseline as reference value and every p-value presented was adjusted for multiple comparisons with Dunnett's post hoc test.

C57BL/6JRj male mice = assay: Calcium excretion and kidney weight in normal male mice; type: in vivo
Procedure: as §1
Seventeen (17) bilateral ovariectomized C57BL/6JRj female mice 8 weeks of age, were supplied by Janvier Labs France. The ovaries from the female mice were surgically removed by the supplier (see also Table 6). […]

In the case of `CC(=O)N[C@H](Cc1ccc2ccccc2c1)C(=O)N[C@H](Cc1ccc(Cl)cc1)C(=O)N[C@H](Cc1cccnc1)C(=O)N[C@@H](CO)C(=O)N[C@@H](Cc1ccc(O)cc1)C(=O)N[C@H](CCCNC(N)=O)C(=O)N[C@@H](CC(C)C)C(=O)N[C@@H](CCCNC(=N)N)C(=O)N1CCC[C@H]1C(=O)N[C@H](C)C(N)=O` [GnRH antagonist, Cetrorelix, reference compound] (Ac-[d2Nal][dPhe(4-Cl)][d3Pal]SY[dCit]LRP[dA]-NH2), the “kidney weight compared with vehicle (IgG2b)” value [1] is reported as “slightly lower”, the calcium excretion [1] is reported as “suppressed calcium excretion” and the visceral fat mass ([2]; 10 days) is reported as “suppressed”. For the same molecule, the “Body weight compared with vehicle” value [2] was “lower”.

`C[C@]12CC[C@H]3[C@@H](CCC4=CC(=O)CC[C@@]43C)[C@@H]1CC[C@@H]2O` [testosterone, reference compound] was tested, and the “expression of LHCGR exon 11” value (human kidney tissue; three hours ex vivo culture, 5 out of 5 below detection vs vehicle 3 out of 10) was “suppressed”.

B1: PTH: parathyroid hormone, added to kidney tissue culture media at 0.01 pg/mL (protein, UniProt P01270 32-115, looked up)
Parathyroid hormone: SVSEIQLMHNLGKHLNSMERVEWLRKKLQDVHNFVALGAPLAPRDAGSQRPRKKEDNVLVESHEKSLGEADKADVNVLTKAKSQ
modifications: Parathyroid hormone
notes: parathyroid hormone, added to kidney tissue culture media at 0.01 pg/mL
With B1 the TRPV5 expression (human kidney tissue; after 24 hours) was “significantly increased”.

B2: LH-β ab: Monoclonal mouse antibody (IgG2B; Kappa) targeting mouse LH beta; variable light chain SEQ ID NO: 5, heavy chain SEQ ID NO: 9 (antibody)
heavy: MEWRIFLFILSGTAGVHSQVQLQQSGPELVKPGTSLKLSCKASGYTFTDYVLTWVKQRTGQGLEWIGEIYPGSGSTSYNEKFRGKATLTADKSSNTAYMQLSSLTSEDSAVYFCAHLYYADYDFSYWGQGTLVTVSAAKTTPPSVYPLAPGCGDTTGSSVTLGCLVKGYFPESVTVTWNSGSLSSSVHTFPALLQSGLYTMSSSVTVPSSTWPSQTVTCSVAHPASSTTVDKKLE
light: MKLPVRLLVLMFWIPVSSSDVLMTQIPLSLVVSLGDQASISCRSSQNIVQSNGNTYLEWYLQKPGQSPKLLIYKVSNRFSGVPDRFSGSGSGTDFTLKISRVEAEDLGVYYCFQGSHVPLTFGAGTKLELKRADAAPTVSIFPPSSEQLTSGGASVVCFLNNFYPKDINVKWKIDGSERQNGVLNSWTDQDSKDSTYSMSST
With B2 the calcium excretion (C57BL/6JRj male mice; all concentrations) was “reduced calcium excretion”, the “kidney weight compared with vehicle (IgG2b)” value (C57BL/6JRj male mice; day 10) was “slightly lower” and the “kidney weight compared with vehicle (IgG2b)” value [1] was “slightly lower”. For the same molecule, the calcium excretion [1] was “suppressed calcium excretion”, the calcium excretion suppressed ([1]; high dosage, female mice) was 70% and the subcutaneous fat mass ([2]; 10 days) was “suppressed”. The thyroid mass ([2]; 10 days) was “lowered”, the visceral fat mass ([2]; 10 days) was “suppressed” and the “Body weight compared with vehicle” value [2] was “lower”. For the same molecule, the “increase of core temperature relative to baseline” value ([2]; day 5 and 10) was 8% and the “change in body weight versus vehicle” value ([2]; most pronounced in the first 5 days) was “effective in suppressing the effect of menopause (gonadectomy) on weight induction”.
